Measured values: the supplement of paper PMC7125110
± gives the standard error. This sample holds only a part of the variants without activity.

B1: glmS ribozyme (parent)
chain: AUAAAAGCGCCAGAACUACAGAAAUGUAGUUGACGAGGAGGAGGUUUAUCGAAUUUUCGGCGGAUGCCUCCAAA

Legend:
Details in all cases: with glucosamine-6-phosphate
glucosamine-6-phosphate [1] = variants of: B1; assay: self-cleavage kobs at 40 uM GlcN6P; higher = faster cleavage; RNA array
How it was run: (§1)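 Sequenced MiSeq chips were the platform: E. coli RNA polymerase transcribed barcoded ribozyme variants on them in situ, and a hybridised Cy3 probe tracked these at 37 °C. After glucosamine-6-phosphate (40 μM to 10 mM) in HEPES/KCl/Mg(OAc)2 buffer was flowed in, tiles were imaged over ~14 h. Signals normalised to baseline and to non-cleaving reference variants were reduced to per-tile medians and fit to one- or two-exponential decays to obtain kobs. kcat and KM were derived through weighted Michaelis–Menten fits across concentrations.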

glucosamine-6-phosphate [2] = variants of: B1; assay: self-cleavage kobs at 10000 uM GlcN6P; higher = faster cleavage; RNA array
How it was run: as §1

glucosamine-6-phosphate [3] = variants of: B1; assay: self-cleavage kobs at 640 uM GlcN6P; higher = faster cleavage; RNA array
How it was run: as §1

glucosamine-6-phosphate [4] = variants of: B1; assay: self-cleavage kobs at 2500 uM GlcN6P; higher = faster cleavage; RNA array
How it was run: as §1

glucosamine-6-phosphate [5] = variants of: B1; assay: self-cleavage kobs at 160 uM GlcN6P; higher = faster cleavage; RNA array
How it was run: as §1

Variant | self-cleavage kobs at 40 uM GlcN6P (glucosamine-6-phosphate [1]) [s⁻¹] | self-cleavage kobs at 10000 uM GlcN6P (glucosamine-6-phosphate [2]) [s⁻¹] | self-cleavage kobs at 640 uM GlcN6P (glucosamine-6-phosphate [3]) [s⁻¹] | self-cleavage kobs at 2500 uM GlcN6P (glucosamine-6-phosphate [4]) [s⁻¹] | self-cleavage kobs at 160 uM GlcN6P (glucosamine-6-phosphate [5]) [s⁻¹]
G7A A12C G51C A53G G66A | < 1e-05 | – | – | – | –
G7C A39G C70U | < 1e-05 | < 1e-05 | – | – | –
G7U A36U U54A G62A | < 1e-05 | – | – | – | –
G7U U45C U56A | < 1e-05 | – | < 1e-05 | < 1e-05 | –
A6G U46A | < 1e-05 | – | – | – | < 1e-05
A6G U46G | < 1e-05 | 7.11e-05 ± 8.7e-06 | – | – | < 1e-05
C8A C11U U46C A53U | < 1e-05 | – | – | – | –
A6U G29U C50U G66C | < 1e-05 | < 1e-05 | – | – | –
G7A C8G A12C | < 1e-05 | – | – | – | –
G7U C8G G32C U56G C61A | < 1e-05 | – | – | < 1e-05 | –
A6U G43A G59A G60U | < 1e-05 | – | – | – | –
G7U A48G A64U | < 1e-05 | < 1e-05 | – | – | –
C8A A53C | < 1e-05 | < 1e-05 | < 1e-05 | < 1e-05 | < 1e-05
C8A A53U | < 1e-05 | < 1e-05 | < 1e-05 | < 1e-05 | < 1e-05
G7A G44C A48U C68U | < 1e-05 | < 1e-05 | – | – | –
G7U G43C | < 1e-05 | – | < 1e-05 | – | < 1e-05
G7U G43A | < 1e-05 | < 1e-05 | < 1e-05 | < 1e-05 | < 1e-05
C8A C16G | < 1e-05 | < 1e-05 | < 1e-05 | < 1e-05 | < 1e-05
G7C C11A C50U U54C C58A C70A | 0.000371 ± 0.00013 | – | – | – | –
G7U A14C U56G | < 1e-05 | < 1e-05 | < 1e-05 | < 1e-05 | < 1e-05
A6U G32C G41U | < 1e-05 | – | – | – | –
G7A U30A | < 1e-05 | – | – | < 1e-05 | < 1e-05
A6U G26A A48U A52G | < 1e-05 | – | – | – | < 1e-05
A6U C11G G29C U45C | < 1e-05 | – | – | – | –
G7A U57G C61A | < 1e-05 | – | – | – | –
G7C U30G | < 1e-05 | < 1e-05 | < 1e-05 | < 1e-05 | < 1e-05

Variant | self-cleavage kobs at 40 uM GlcN6P (glucosamine-6-phosphate [1]) [s⁻¹] | self-cleavage kobs at 10000 uM GlcN6P (glucosamine-6-phosphate [2]) [s⁻¹] | self-cleavage kobs at 640 uM GlcN6P (glucosamine-6-phosphate [3]) [s⁻¹] | self-cleavage kobs at 2500 uM GlcN6P (glucosamine-6-phosphate [4]) [s⁻¹] | self-cleavage kobs at 160 uM GlcN6P (glucosamine-6-phosphate [5]) [s⁻¹]
A6G G44U C61U | < 1e-05 | < 1e-05 | < 1e-05 | < 1e-05 | < 1e-05
A6U G9A A33G C68U C71G | 0.000234 ± 0.0001 | 4.24e-05 ± 1.8e-05 | – | – | –
A6G U31C C71U | < 1e-05 | – | – | – | –
A6U G13A A14U | < 1e-05 | < 1e-05 | – | – | < 1e-05
G7U G35A G40C G43C C58G | < 1e-05 | – | – | – | –
A6G U31G A42C A48G C67G | < 1e-05 | – | – | – | –
G7U C11A C61G | < 1e-05 | – | – | – | –
A6U A48C C50U A52U C61U C67G C68G | < 1e-05 | – | – | – | –
G7C G59A | < 1e-05 | < 1e-05 | < 1e-05 | – | < 1e-05
G7A A14G U49C | < 1e-05 | < 1e-05 | – | – | –
G7C C10A A52C | < 1e-05 | < 1e-05 | – | – | –
G7U A52G C71U | < 1e-05 | – | – | – | –
G7U C11U A33U G40C | < 1e-05 | < 1e-05 | – | < 1e-05 | –
A6U G9U A15C U30A U49C | < 1e-05 | – | – | – | –
G7A G41C | < 1e-05 | – | < 1e-05 | < 1e-05 | < 1e-05
G7U G29A U30C C34U U45A | < 1e-05 | – | – | – | –
G7C G9U | < 1e-05 | < 1e-05 | < 1e-05 | – | –
G7U G43U A52G C68A C70U | < 1e-05 | – | – | – | –
G7A A36C U54G | < 1e-05 | < 1e-05 | – | – | –
G7A U30G U45G C67G C68A | 0.000126 ± 4e-05 | 0.00014 ± 3.6e-05 | – | – | –
G7A G32U A39G C58A | < 1e-05 | < 1e-05 | – | – | –
G7U C11U | < 1e-05 | < 1e-05 | < 1e-05 | < 1e-05 | < 1e-05
A6U U31C G41A | < 1e-05 | < 1e-05 | – | – | –
G7C A33U | < 1e-05 | < 1e-05 | – | < 1e-05 | < 1e-05
G7C A33G | < 1e-05 | < 1e-05 | < 1e-05 | – | < 1e-05
C8A A15U G38A G41C A53G | < 1e-05 | – | – | – | –

Variant | self-cleavage kobs at 40 uM GlcN6P (glucosamine-6-phosphate [1]) [s⁻¹] | self-cleavage kobs at 10000 uM GlcN6P (glucosamine-6-phosphate [2]) [s⁻¹] | self-cleavage kobs at 640 uM GlcN6P (glucosamine-6-phosphate [3]) [s⁻¹] | self-cleavage kobs at 2500 uM GlcN6P (glucosamine-6-phosphate [4]) [s⁻¹] | self-cleavage kobs at 160 uM GlcN6P (glucosamine-6-phosphate [5]) [s⁻¹]
G7C G41U C50G | < 1e-05 | – | – | – | –
A6U G62C | < 1e-05 | – | < 1e-05 | < 1e-05 | –
G7C U57A | < 1e-05 | – | – | – | < 1e-05
A6U C16U U30C | < 1e-05 | – | – | – | –
G7C U65A | < 1e-05 | < 1e-05 | < 1e-05 | – | –
G7U G43U C50U G51C | < 1e-05 | < 1e-05 | – | – | –
G7A A15G G51U C58G A64U C70A | 0.000522 ± 0.00019 | 0.000462 ± 0.00017 | – | – | –
G7A G13C G38A | < 1e-05 | – | – | < 1e-05 | –
G7U C11G A12C A42U | < 1e-05 | – | – | < 1e-05 | –
C8A A33U G44A A64U | < 1e-05 | – | < 1e-05 | – | –
G7C C34U G35A G37U A42U G43U C71A | < 1e-05 | – | < 1e-05 | – | –
A6U C11U G26U U56C | < 1e-05 | – | – | – | –
G7U A52G | < 1e-05 | – | – | – | < 1e-05
G7C C16G A52G | < 1e-05 | < 1e-05 | < 1e-05 | – | –
G7A U56G | < 1e-05 | – | < 1e-05 | – | –
G7A C11G A12U A42C G44A G51C A53U C71U | < 1e-05 | < 1e-05 | – | – | –
G7A A42G C70U | < 1e-05 | – | – | < 1e-05 | –
G7C A39C | < 1e-05 | < 1e-05 | – | – | < 1e-05
G7C A39U | < 1e-05 | < 1e-05 | < 1e-05 | – | –
G7C A39G | < 1e-05 | < 1e-05 | < 1e-05 | < 1e-05 | < 1e-05
G7U G40A | < 1e-05 | – | – | – | –
G7A G21U A33G C67U U69G | 8.76e-05 ± 2.2e-05 | 0.000115 ± 1.8e-05 | – | – | –
G7C C58U | < 1e-05 | < 1e-05 | – | < 1e-05 | –
A6U A36C C50U A64G | < 1e-05 | – | – | – | –
G7A G41U A42G A52G | < 1e-05 | < 1e-05 | – | – | –
G7U U30G C61G G62U | < 1e-05 | – | – | – | –

Variant | self-cleavage kobs at 40 uM GlcN6P (glucosamine-6-phosphate [1]) [s⁻¹] | self-cleavage kobs at 10000 uM GlcN6P (glucosamine-6-phosphate [2]) [s⁻¹] | self-cleavage kobs at 640 uM GlcN6P (glucosamine-6-phosphate [3]) [s⁻¹] | self-cleavage kobs at 2500 uM GlcN6P (glucosamine-6-phosphate [4]) [s⁻¹] | self-cleavage kobs at 160 uM GlcN6P (glucosamine-6-phosphate [5]) [s⁻¹]
A6G G44C | < 1e-05 | < 1e-05 | < 1e-05 | < 1e-05 | < 1e-05
A6G G44A | < 1e-05 | < 1e-05 | < 1e-05 | < 1e-05 | < 1e-05
G7C C16A U47C A53U | < 1e-05 | < 1e-05 | – | – | –
G7A G59A | < 1e-05 | < 1e-05 | < 1e-05 | < 1e-05 | < 1e-05
A6U A36U | < 1e-05 | < 1e-05 | < 1e-05 | < 1e-05 | < 1e-05
C8A A12G | < 1e-05 | < 1e-05 | < 1e-05 | < 1e-05 | < 1e-05
C8A A12U | < 1e-05 | < 1e-05 | < 1e-05 | < 1e-05 | –
G7C C10U U30A U46A | < 1e-05 | – | – | – | –
G7U A64C | < 1e-05 | < 1e-05 | < 1e-05 | – | –
G7A C58G | < 1e-05 | – | < 1e-05 | – | < 1e-05
C8A A33U C34A U56A | < 1e-05 | – | – | – | –
G7U G41U | < 1e-05 | < 1e-05 | < 1e-05 | < 1e-05 | < 1e-05
G7U C16G A36C A42C A52G | < 1e-05 | – | – | – | –
G7U A52C C70U | < 1e-05 | < 1e-05 | < 1e-05 | < 1e-05 | –
A6U G35A | < 1e-05 | – | < 1e-05 | – | < 1e-05
G7C C8U A39U A53U | < 1e-05 | < 1e-05 | – | – | –
G7C G60U | < 1e-05 | < 1e-05 | – | < 1e-05 | < 1e-05
A6G U46G C50G U65G C70A | < 1e-05 | – | – | – | –
G7C C10A | < 1e-05 | < 1e-05 | – | < 1e-05 | –
G7C A14G G38C U54G | < 1e-05 | – | – | – | –
A6U A12G A42C A52U A64G C68G | < 1e-05 | < 1e-05 | – | < 1e-05 | –
A6G G66U | < 1e-05 | – | < 1e-05 | – | < 1e-05
A6G U57C | < 1e-05 | – | < 1e-05 | < 1e-05 | < 1e-05
